Here are results for 3 molecules from US20150010589A1 (published 2015).

The labels stand for the following.
T1: soluble collagen type III (pepsin-digested, non-fibrillar; BD Biosciences) (human, UniProt P02461 168-1196)
T1 construct: domain: pepsin-digested, soluble non-fibrillar (tertiary structure, triple helical); also called collagen III
T1 sequence: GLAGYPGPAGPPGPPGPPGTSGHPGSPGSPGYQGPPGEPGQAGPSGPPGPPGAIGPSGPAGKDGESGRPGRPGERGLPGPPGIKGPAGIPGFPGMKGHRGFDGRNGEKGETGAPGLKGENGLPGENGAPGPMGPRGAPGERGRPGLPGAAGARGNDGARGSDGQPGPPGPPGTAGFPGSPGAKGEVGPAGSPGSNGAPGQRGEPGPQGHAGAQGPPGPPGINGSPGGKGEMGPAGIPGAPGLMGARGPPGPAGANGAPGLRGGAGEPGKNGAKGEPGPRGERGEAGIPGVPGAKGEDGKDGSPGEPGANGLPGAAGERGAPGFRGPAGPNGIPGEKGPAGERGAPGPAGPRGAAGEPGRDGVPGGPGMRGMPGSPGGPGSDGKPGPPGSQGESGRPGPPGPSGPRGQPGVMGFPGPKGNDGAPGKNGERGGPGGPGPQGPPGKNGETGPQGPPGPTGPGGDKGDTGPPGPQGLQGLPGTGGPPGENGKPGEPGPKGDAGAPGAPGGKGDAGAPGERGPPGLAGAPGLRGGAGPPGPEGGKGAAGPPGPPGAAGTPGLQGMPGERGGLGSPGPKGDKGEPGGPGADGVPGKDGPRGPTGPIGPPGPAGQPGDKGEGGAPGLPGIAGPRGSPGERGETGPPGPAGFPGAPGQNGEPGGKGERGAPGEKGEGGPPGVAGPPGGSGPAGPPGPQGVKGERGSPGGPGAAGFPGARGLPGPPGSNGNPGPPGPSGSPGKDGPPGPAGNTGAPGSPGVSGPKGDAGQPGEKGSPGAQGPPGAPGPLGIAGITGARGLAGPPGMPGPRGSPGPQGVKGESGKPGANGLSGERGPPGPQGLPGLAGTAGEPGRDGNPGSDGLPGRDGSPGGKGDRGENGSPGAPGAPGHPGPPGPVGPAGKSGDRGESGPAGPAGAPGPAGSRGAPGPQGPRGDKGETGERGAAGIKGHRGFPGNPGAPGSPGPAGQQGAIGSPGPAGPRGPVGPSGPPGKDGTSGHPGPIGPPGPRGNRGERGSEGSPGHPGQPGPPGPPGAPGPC

B1: recombinant GPVI (platelet glycoprotein VI) (receptor)
chain: QSGPLPKPSLQALPSSLVPLEKPVTLRCQGPPGVDLYRLEKLSSSRYQDQAVLFIPAMKRSLAGRYRCSYQNGSLWSLPSDQLELVATGVFAKPSLSAQPGPAVSSGGDVTLQCQTRYGFDQFALYKEGDPAPYKNPERWYRASFPIITVTAAHSGTYRCYSFSSRDPYLWSAPSDPLELVVTGTSVTPSRLPTEPPSPVAEFSEATAELTVSFTNEVFTTETSRSITASPKESDSPAGPARQYYTK
B2: recombinant Aegyptin (mature protein with C-terminal 6xHis tag, expressed in 293-F cells) (other)
chain: RPMPEDEEPVAEGGDDDASGESEGEEETTDDAGGDGGEEENEGEEHAGDKDAGGEDTGKEENTGHDDAGEEDAGEEDAGEEDAGEEDAGEEDAEKEEGEKEDAGDDAGSDDGEEDSTGGDEGEDNAEDSKGSEKNDPADTYRQVVALLDKDTKVDHIQSEYLRSALNNDLQSEVRVPVVEAIGRIGDYSKIQGCFKSMGKDVKKVISEEEKKFKSCMSKKKSEYQCSEDSFAAAKSKLSPITSKIKSCVSSKGRHHHHHH
B3: Aegyptin C-terminus-2 (137 aa), truncated form without GEEDA repeats (other)
chain: GGDEGEDNAEDSKGSEKNDPADTYRQVVALLDKDTKVDHIQSEYLRSALNNDLQSEVRVPVVEAIGRIGDYSKIQGCFKSMGKDVKKVISEEEKKFKSCMSKKKSEYQCSEDSFAAAKSKLSPITSKIKSCVSSKGR
notes: also called C-terminal-2; C-terminus 2 domain

The target of assay [1] is B2. The experiment in a line: SPR, Aegyptin injected over immobilized GPVI. A general note: SPR reads the build-up and loss of mass on a sensor chip optically.
Assay [2] has as its target T2, soluble collagen type I (pepsin-digested, non-fibrillar, triple helical; BD Biosciences) (human, UniProt P02452 179-1192; P08123 91-1104).
T2 construct: domain: pepsin-digested, soluble non-fibrillar (tertiary structure, triple helical); also called collagen I; Coll-I
The experiment in a line: SPR, Aegyptin over immobilized soluble collagen type I, two-state model.

In assay [3] the target is T3, heat-denatured soluble collagen type I (90 min at 98° C.) (human, UniProt P02452 179-1192; P08123 91-1104).
T3 construct: domain: pepsin-digested, soluble non-fibrillar collagen, heat-denatured; Same material as soluble collagen I, denatured in a thermocycler before immobilization; also called Collagen denatured; heat-denatured collagen
T3 sequence (P02452 179-1192 limits assumed, chain 1 of 2): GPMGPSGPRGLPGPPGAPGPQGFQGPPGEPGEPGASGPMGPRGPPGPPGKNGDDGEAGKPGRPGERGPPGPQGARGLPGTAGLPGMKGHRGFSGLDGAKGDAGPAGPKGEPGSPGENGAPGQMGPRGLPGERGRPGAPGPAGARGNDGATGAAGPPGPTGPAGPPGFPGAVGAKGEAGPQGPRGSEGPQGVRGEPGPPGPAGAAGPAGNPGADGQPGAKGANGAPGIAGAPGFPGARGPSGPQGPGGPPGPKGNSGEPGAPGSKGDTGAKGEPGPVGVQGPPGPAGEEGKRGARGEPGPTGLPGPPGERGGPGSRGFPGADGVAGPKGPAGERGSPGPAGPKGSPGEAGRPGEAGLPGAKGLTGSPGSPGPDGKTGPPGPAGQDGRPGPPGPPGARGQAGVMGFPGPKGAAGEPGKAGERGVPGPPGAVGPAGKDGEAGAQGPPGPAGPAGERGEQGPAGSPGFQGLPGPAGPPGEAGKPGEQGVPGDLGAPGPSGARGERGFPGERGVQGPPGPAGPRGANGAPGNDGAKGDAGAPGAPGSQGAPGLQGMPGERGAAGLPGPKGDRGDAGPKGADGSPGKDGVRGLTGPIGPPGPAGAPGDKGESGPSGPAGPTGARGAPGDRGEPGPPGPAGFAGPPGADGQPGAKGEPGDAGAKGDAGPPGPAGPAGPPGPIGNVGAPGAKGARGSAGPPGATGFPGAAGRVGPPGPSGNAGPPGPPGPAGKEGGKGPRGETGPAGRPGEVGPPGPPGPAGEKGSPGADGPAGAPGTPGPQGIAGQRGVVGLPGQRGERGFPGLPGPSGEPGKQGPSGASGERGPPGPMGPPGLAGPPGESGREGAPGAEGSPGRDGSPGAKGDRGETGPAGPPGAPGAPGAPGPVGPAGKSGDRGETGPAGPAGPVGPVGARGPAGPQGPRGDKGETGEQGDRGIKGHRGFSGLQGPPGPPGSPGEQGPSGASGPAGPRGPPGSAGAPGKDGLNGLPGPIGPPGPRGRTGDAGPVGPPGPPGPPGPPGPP
T3 sequence (P08123 91-1104 limits assumed, chain 2 of 2): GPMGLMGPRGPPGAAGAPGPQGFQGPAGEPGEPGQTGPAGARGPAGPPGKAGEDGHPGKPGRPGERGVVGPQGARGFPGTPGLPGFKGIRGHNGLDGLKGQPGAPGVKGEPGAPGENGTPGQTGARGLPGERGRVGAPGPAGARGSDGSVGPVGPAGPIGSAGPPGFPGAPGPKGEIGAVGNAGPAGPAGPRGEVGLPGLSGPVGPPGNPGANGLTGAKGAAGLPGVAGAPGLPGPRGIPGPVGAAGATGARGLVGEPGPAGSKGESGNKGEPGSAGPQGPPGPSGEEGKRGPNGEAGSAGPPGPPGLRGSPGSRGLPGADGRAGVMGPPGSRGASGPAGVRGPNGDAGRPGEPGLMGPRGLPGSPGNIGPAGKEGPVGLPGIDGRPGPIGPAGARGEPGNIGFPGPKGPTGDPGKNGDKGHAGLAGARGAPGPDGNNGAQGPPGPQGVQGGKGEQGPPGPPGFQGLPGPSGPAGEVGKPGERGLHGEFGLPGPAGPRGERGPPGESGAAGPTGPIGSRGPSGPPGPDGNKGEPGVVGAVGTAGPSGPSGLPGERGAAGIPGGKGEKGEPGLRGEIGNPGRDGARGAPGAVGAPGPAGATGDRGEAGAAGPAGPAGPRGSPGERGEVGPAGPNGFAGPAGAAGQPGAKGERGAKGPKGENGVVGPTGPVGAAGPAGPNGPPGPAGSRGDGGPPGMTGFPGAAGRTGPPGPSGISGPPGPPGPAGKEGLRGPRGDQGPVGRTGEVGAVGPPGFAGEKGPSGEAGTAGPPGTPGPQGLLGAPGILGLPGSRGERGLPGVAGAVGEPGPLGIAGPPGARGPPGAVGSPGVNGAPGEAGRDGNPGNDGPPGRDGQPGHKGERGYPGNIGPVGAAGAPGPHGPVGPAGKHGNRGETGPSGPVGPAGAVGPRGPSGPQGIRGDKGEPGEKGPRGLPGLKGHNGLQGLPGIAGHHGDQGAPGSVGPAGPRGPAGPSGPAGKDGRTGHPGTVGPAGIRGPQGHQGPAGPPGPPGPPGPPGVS
The experiment in a line: SPR, Aegyptin over immobilized heat-denatured collagen I, two-state model; Kd1.

For assay [4], the target named is T3, heat-denatured soluble collagen type I …. The experiment in a line: SPR, Aegyptin over immobilized heat-denatured collagen I, two-state model.
In assay [5] the target is T1, soluble collagen type III …. Briefly: SPR (Biacore T100), Aegyptin over immobilized collagen type III, 25 C, two-state reaction model; Kd1.
Assay [6] addresses T3, heat-denatured soluble collagen type I …. Briefly: SPR, Aegyptin over immobilized heat-denatured collagen I, two-state model; Ka1.
Assay [7] concerns the target T2, soluble collagen type I …. Briefly: SPR (Biacore T100), Aegyptin over immobilized collagen type I, 25 C, two-state reaction model.
The target of assay [8] is T1, soluble collagen type III …. Briefly: SPR (Biacore T100), Aegyptin over immobilized collagen type III, 25 C, two-state reaction model; Ka1.
In assay [9] the target is T4, RGQOGVMGFO peptide GPC-(GPP)5-GPOGPSGPRGQOGVMGFOGPKGNDGAO-(GPP)5-GPC-NH2, cross-linked (O residues as printed (hydroxyproline); C-terminal amide (NH2); cross-linked (4° C. for 48 hours in PBS, or SPDP)).
T4 construct: also called collagen type III vWf-related peptide
Briefly: ELISA, inhibition of vWf (3 nM) binding to the coated RGQOGVMGFO peptide by Aegyptin (0.05-3 µM). (In an ELISA, binding on a coated surface is turned into a signal by an enzyme label.)

Assay [10] has as its target T2, soluble collagen type I …. The experiment in a line: SPR (Biacore T100), Aegyptin over immobilized collagen type I, 25 C, two-state reaction model; Kd1.
The target of assay [11] is T1, soluble collagen type III …. Briefly: SPR (Biacore T100), Aegyptin over immobilized collagen type III, 25 C, two-state reaction model.
For assay [12], the target named is T2, soluble collagen type I …. Briefly: SPR (Biacore T100), Aegyptin over immobilized collagen type I, 25 C, two-state reaction model; Ka1.
Assay [13] deals with T2, soluble collagen type I …. The experiment in a line: SPR kinetics at 15-40 C on immobilized collagen type I, van't Hoff analysis; value (±SE).
Assay [14] deals with T2, soluble collagen type I …. Briefly: SPR, Aegyptin over immobilized soluble collagen type I, 180 s at 30 µl/min, two-state model; Ka1.
The target of assay [15] is T2, soluble collagen type I …. Briefly: SPR, Aegyptin over immobilized soluble collagen type I, two-state model; Kd1.
Assay [16] deals with T2, soluble collagen type I …. The experiment in a line: SPR, C-terminus-2 (5-250 nM) over immobilized soluble collagen type I, two-state binding model.

T2 sequence (P02452 179-1192 limits assumed, chain 1 of 2): as the sequence (P02452 179-1192 limits assumed, chain 1 of 2) above
T2 sequence (P08123 91-1104 limits assumed, chain 2 of 2): as the sequence (P08123 91-1104 limits assumed, chain 2 of 2) above

As to B1, in assay [1], the binding result is given as “no binding (tested: 500 nM)”.

B2: the Kd – broadly, a measure of binding affinity in units of concentration – in [2] was 0.98 nM; in assay [4] it was 3.32 nM; in assay [7], 1.22 nM; in [11], 1.4 nM. The koff (as a rule, a measure of how fast the partners let go of each other) in assay [3] is 0.0188 s⁻¹; in [5], 0.00605 s⁻¹; in [10] it was 0.0154 s⁻¹; in [15], 0.0103 s⁻¹. Moreover, the kon (in general, the second-order rate constant of association) was 6740 M⁻¹ s⁻¹ in assay [6], 2.49e+06 M⁻¹ s⁻¹ in assay [8], 4.24e+06 M⁻¹ s⁻¹ in assay [12] and 3.63e+08 M⁻¹ s⁻¹ in [14]. For the same molecule, the IC50 (commonly the point on the concentration scale where inhibition reaches its midpoint) in assay [9] was around 300 nM. For the same molecule, the “TΔS°” value in assay [13] was 6.69 kcal/mol. In addition, in assay [13], the “ΔG°” value was -11.5 kcal/mol. For the same molecule, the “ΔH°” value in [13] was -4.78 kcal/mol. The “ΔS°” value in assay [13] was 95 J/(K*mol).

In the case of B3, in assay [16], the Kd was around 60 nM.
